# Measurements as given in US20190233507A1 (CORNELL UNIVERSITY, published 2019).
# Biological target: β-galactosidase (UniProt P00722 2-1024 = β-galactosidase, limits assumed)
# Test: ELISA, plate coated with 1 µg β-gal per well, anti-FLAG-HRP detection
# Excerpt: FIGS. 1A-D illustrate ubiquibody expression and binding. FIG. 1A is a schematic depiction of pET28a constructs used to express ubiquibodies (“uAb”) in E. coli, which includes single chain Fv antibody fragment (“scFv”), GSGSG linker (“˜”), human C-terminus of Hsc70-interacting protein (“CHIP”) without the N-terminal TPR domain (“[…]”), a FLAG-tag (“F”) and a 6×His-tag (“H6”). FIG. 1B is a western blot of the soluble fractions isolated from BL21(DE3) E. coli cells expressing wild-type human CHIP, inactivated CHIPH260Q, CHIPΔTPR, scFv13R4, scFv13R4-uAb, scFv13-uAb and scFvD10-uAb. An equivalent amount of total protein was loaded in each lane and expression was assayed using anti-FLAG-HRP. FIG. 1C is a graph showing ELISA results where a plate was coated with 1 μg β-gal per well and incubated with 160 ng of purified protein per well. Samples were performed in triplicate and error bars represent the standard deviation of the mean. […]
# Briefly, ELISAs were performed using a 96-well plate coated with antigen (β-gal, gpD or Hsp70) at a concentration of 10 μg/mL (1 μg of antigen per well) and incubated overnight at 4° C. […] The amount of bound anti-flag-HRP was determined by using SigmaFAST™ o-phenylenediamine dihydrochloride (OPD) tablets for detection of peroxidase activity at 492 nm.
# β-galactosidase, sequence (P00722 2-1024 limits assumed): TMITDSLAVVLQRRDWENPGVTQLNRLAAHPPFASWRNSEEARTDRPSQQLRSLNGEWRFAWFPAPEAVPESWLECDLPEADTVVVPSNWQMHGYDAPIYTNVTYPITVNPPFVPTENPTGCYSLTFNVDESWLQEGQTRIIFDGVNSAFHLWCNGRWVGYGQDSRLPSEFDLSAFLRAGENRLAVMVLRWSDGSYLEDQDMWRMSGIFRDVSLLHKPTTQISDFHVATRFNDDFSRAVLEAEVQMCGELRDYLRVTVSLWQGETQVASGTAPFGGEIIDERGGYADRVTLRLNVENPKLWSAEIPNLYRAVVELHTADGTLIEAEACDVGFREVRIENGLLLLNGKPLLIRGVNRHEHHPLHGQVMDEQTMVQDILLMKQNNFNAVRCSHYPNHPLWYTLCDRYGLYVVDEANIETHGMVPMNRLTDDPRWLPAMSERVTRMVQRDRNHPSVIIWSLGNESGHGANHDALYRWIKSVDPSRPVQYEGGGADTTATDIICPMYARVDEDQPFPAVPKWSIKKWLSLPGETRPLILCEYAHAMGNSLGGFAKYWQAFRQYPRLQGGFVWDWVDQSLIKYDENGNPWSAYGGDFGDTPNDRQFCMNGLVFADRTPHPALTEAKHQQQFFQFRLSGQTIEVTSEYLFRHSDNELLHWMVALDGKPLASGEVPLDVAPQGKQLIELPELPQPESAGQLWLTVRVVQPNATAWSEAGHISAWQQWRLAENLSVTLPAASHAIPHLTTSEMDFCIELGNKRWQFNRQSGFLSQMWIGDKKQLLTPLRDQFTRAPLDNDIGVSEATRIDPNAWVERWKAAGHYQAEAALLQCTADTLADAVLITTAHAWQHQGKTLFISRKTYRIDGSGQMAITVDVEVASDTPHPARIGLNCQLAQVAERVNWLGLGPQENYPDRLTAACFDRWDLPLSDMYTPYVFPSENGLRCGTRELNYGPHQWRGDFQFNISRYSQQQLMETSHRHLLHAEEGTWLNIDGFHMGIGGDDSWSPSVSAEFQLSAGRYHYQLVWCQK
binder,measurement,value
"CHIPΔTPR (Construct 3: hCHIPdTPR-FLAGtag-His6tag) (enzyme, Control protein, purified from E. coli) MGRLNFGDDIPSALRIAKKKRWNSIEERRIHQESELHSYLSRLIAAERERELEECQRNHEGDEDDSHVRAQQACIEAKHDKYMADMDELFSQVDEKRKKRDIPDYLCGKISFELMREPCITPSGITYDRKDIEEHLQRVGHFDPVTRSPLTQEQLIPNLAMKEVIDAFISENGWVEDYVDGADYKDDDDKGHHHHHH",binding result,no binding (tested: 160 ng of purified protein per well)
